This passage reports Kd results from patent US20040202655A1.

The target of assay [1] is IGF1R extracellular domain (human) (UniProt P08069). As to the kind of experiment: SPR (BIAcore), IgG captured on protein A, IGF1R extracellular domain in flow. In general terms: SPR reads the build-up and loss of mass on a sensor chip optically.
Assay [2] shares this target. As to the kind of experiment: SPR (BIAcore), IgG captured on mouse anti-human IgG, IGF1R extracellular domain in flow.

As usually defined, the Kd is a measure of binding affinity in units of concentration. The low end stands for higher affinity, the high end for lower affinity.

B1: PINT-8A1 IgG (antibody, V domains shown)
VH: EVQLVQSGAEVKKPGESLTISCKGPGYNFFNYWIGWVRQMPGKGLEWMGIIYPTDSDTRYSPSFQGQVTISVDKSISTAYLQWSSLKASDTAMYYCARSIRYCPGGRCYSGYYGMDVWGQGTMVTVSS
VL: SELTQDPAVSVALGQTVRITCQGDSLRSYYASWYQQKPGQAPVLVIYGKNNRPSGIPDRFSGSSSGNTASLTITGAQAEDEADYYCNSRDSSGNHVVFGGGTKLTVLG
With B1, the figures for the Kd in assay [1] and in assay [2] were 0.109 nM and 0.503 nM, respectively.

B2: PINT-9A2 IgG (antibody, V domains shown)
VH: QVQLVQSGAEVRKPGASVKVSCKTSGYTFRNYDINWVRQAPGQGLEWMGRISGHYGNTDHAQKFQGRFTMTKDTSTSTAYMELRSLTFDDTAVYYCARSQWNVDYWGRGTLVTVSS
VL: LNFMLTQPHSVSESPGKTVTISCTRSSGSIASNYVQWYQQRPGSSPTTVIFEDNRRPSGVPDRFSGSIDTSSNSASLTISGLKTEDEADYYCQSFDSTNLVVFGGGTKVTVLG
Turning to B2, the results for the Kd in assay [1] and in assay [2] were 0.24 nM and 0.138 nM, respectively.
